Test results reported in the supplement of paper PMC9233669.
Variants at the floor of the assay were thinned out.

Legend:
[1] = test system: biotinyl-Trp-oxazolone; assay: self-aminoacylation, catalytic enhancement (BWO) (fold over background); higher = more active; k-Seq, kA / k0A0; sequences stand for … in GGGAAUGGAUCCACAUCUACGAAUUC…UUCACUGCAGACUUGACGAAGCUG
In short: (§1)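 Catalytic enhancement equals the median kA over the uncatalyzed rate, the latter read from the low-activity peak of a bimodal Gaussian fit. Values of kA came from fitting each sequence's fraction reacted to a pseudo-first-order model, with 1000 bootstraps. Reacted RNA was captured with streptavidin and quantified by triplicate qPCR and Illumina sequencing after 90 minutes at room temperature with 2–1250 μM biotinyl-aminoacyl-oxazolone and 0.43 μM mutagenized RNA pools bearing a 21-nt variable region.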

[2] = test system: biotinyl-Ile-oxazolone; assay: self-aminoacylation, catalytic enhancement (BIO) (fold over background); higher = more active; k-Seq, kA / k0A0; sequences stand for … in GGGAAUGGAUCCACAUCUACGAAUUC…UUCACUGCAGACUUGACGAAGCUG
In short: as §1

[3] = test system: biotinyl-Leu-oxazolone; assay: self-aminoacylation, catalytic enhancement (BLO) (fold over background); higher = more active; k-Seq, kA / k0A0; sequences stand for … in GGGAAUGGAUCCACAUCUACGAAUUC…UUCACUGCAGACUUGACGAAGCUG
In short: as §1

[4] = test system: biotinyl-Met-oxazolone; assay: self-aminoacylation, catalytic enhancement (BMO) (fold over background); higher = more active; k-Seq, kA / k0A0; sequences stand for … in GGGAAUGGAUCCACAUCUACGAAUUC…UUCACUGCAGACUUGACGAAGCUG
In short: as §1

[5] = test system: biotinyl-Val-oxazolone; assay: self-aminoacylation, catalytic enhancement (BVO) (fold over background); higher = more active; k-Seq, kA / k0A0; sequences stand for … in GGGAAUGGAUCCACAUCUACGAAUUC…UUCACUGCAGACUUGACGAAGCUG
In short: as §1

[6] = test system: biotinyl-Phe-oxazolone; assay: self-aminoacylation, catalytic enhancement (BFO) (fold over background); higher = more active; k-Seq, kA / k0A0; sequences stand for … in GGGAAUGGAUCCACAUCUACGAAUUC…UUCACUGCAGACUUGACGAAGCUG
In short: as §1

Row | Sequence | self-aminoacylation [1] | self-aminoacylation [2] | self-aminoacylation [3] | self-aminoacylation [4] | self-aminoacylation [5] | self-aminoacylation [6]
1 | CUACUUCAAACAUUUGGUCUG [Fam1A.1 aminoacylation ribozyme variant] | 0.678 | 1.13 | 0.802 | 0.873 | 0.984 | 0.677
2 | AUUACCAUGGUCCUCGAGUGA [Fam2.1 aminoacylation ribozyme variant] | 4.82 | 2.48 | 5.83 | 4.88 | 2.68 | 29.3
3 | AAGUUUGCUAAUCGCCGCAAG [Fam3.1 aminoacylation ribozyme variant] | 4.38 | 1.97 | 1.54 | 1.56 | 1.47 | 2.82
4 | AUUAUCCUGGACAUCGAGUGA [Fam2.1 aminoacylation ribozyme variant] | 8.19 | 2.88 | 6.24 | 6.78 | 3.06 | 34.7
5 | CUACUUCAAACAACCGGGCUG [Fam1A.1 aminoacylation ribozyme variant] | 0.852 | 1.46 | 1.27 | 1.35 | 1.22 | 2.15
6 | CCUCACUUCAAACAAUCGGUC [Fam1B.1 aminoacylation ribozyme variant] | 37.3 | 1.21 | 2.35 | 1.51 | 1.25 | 93.7
7 | AAGUUUAGUAAUAGUCGCAAG [Fam3.1 aminoacylation ribozyme variant] | 1.23 | 1.85 | 1.71 | 1.75 | 1.55 | 3.24
8 | AUUCGCCUAGGUCAUCGGCUG [Fam2.2 aminoacylation ribozyme variant] | 2.11 | 2.08 | 2.16 | 1.95 | 2.16 | 6.51
9 | AUUCCCCUGGUGAUCGAGUGA [Fam2.1 aminoacylation ribozyme variant] | 6.06 | 3.12 | 5.91 | 5.51 | 3.13 | 36.9
10 | UUACUUCAAACAAUUGGUCUG [Fam1A.1 aminoacylation ribozyme variant] | 1.61 | 1.43 | 1.14 | 1.2 | 1.12 | 1.76
11 | AUUAUCCUGGUCAUCGAGCGA [Fam2.1 aminoacylation ribozyme variant] | 1.46 | 1.77 | 1.83 | 1.59 | 1.41 | 1.01
12 | AUUCACGAAGGUCAUCGGGUG [Fam2.2 aminoacylation ribozyme variant] | 8.81 | 5.12 | 11.3 | 10.5 | 6.74 | 89.6
13 | AUUCGCCUAGGUCAUCGCGUG [Fam2.2 aminoacylation ribozyme variant] | 17.6 | 10 | 23.4 | 19.2 | 10.9 | 126
14 | AUUACACUGGUCAUCGAGUCA [Fam2.1 aminoacylation ribozyme variant] | 0.497 | 0.877 | 0.857 | 0.865 | 0.83 | 0.583
15 | CUGCUUCAAACAAUCGCUCUG [Fam1A.1 aminoacylation ribozyme variant] | 3.14 | 0.876 | 0.984 | 0.937 | 0.888 | 4.43
16 | CCUCACUUCAAGCAACCGGUC [Fam1B.1 aminoacylation ribozyme variant] | 1.29 | 0.978 | 0.806 | 0.857 | 0.834 | 1.67
17 | CUGCUUCAAACAAUCGGUCUU [Fam1A.1 aminoacylation ribozyme variant] | 52 | 1.84 | 2.97 | 1.91 | 1.72 | 107
18 | CCACACAUCAAACAAUCGGUC [Fam1B.1 aminoacylation ribozyme variant] | 1.92 | 0.795 | 0.749 | 0.715 | 0.92 | 3.04
19 | AUUACCCUGGUCGUCGGGUGA [Fam2.1 aminoacylation ribozyme variant] | 5.14 | 2.86 | 4.72 | 3.87 | 2.98 | 26.3
20 | AUUACCAUGGUCAUCGAGUGG [Fam2.1 aminoacylation ribozyme variant] | 2.18 | 1.72 | 3.14 | 2.45 | 1.63 | 2.67
21 | AUUCACCUAGGUCAUCGGUAG [Fam2.2 aminoacylation ribozyme variant] | 0.372 | 0.626 | 0.606 | 0.838 | 0.836 | 0.533
22 | AUUCACCUAGGGCAUCGCGUG [Fam2.2 aminoacylation ribozyme variant] | 2.95 | 3.12 | 2.92 | 3.5 | 3.89 | 26.7
23 | CUACUUCAUACAAUGGGUCUG [Fam1A.1 aminoacylation ribozyme variant] | 0.764 | 0.805 | 0.803 | 0.755 | 0.757 | 0.65
24 | AUUACCGUGGUCUUCGAGUGA [Fam2.1 aminoacylation ribozyme variant] | 6.36 | 2.96 | 5.05 | 5.14 | 3.21 | 27
25 | AUUACCCUGUUGAUCGAGUGA [Fam2.1 aminoacylation ribozyme variant] | 16.8 | 5.62 | 13 | 12.5 | 5.71 | 78.3
26 | ACUACUCUGGUCAUCGAGUGA [Fam2.1 aminoacylation ribozyme variant] | 7.79 | 4.09 | 8.12 | 5.17 | 3.45 | 36.2

Row | Sequence | self-aminoacylation [1] | self-aminoacylation [2] | self-aminoacylation [3] | self-aminoacylation [4] | self-aminoacylation [5] | self-aminoacylation [6]
27 | AUUACACUGGUCAUUGAGUGA [Fam2.1 aminoacylation ribozyme variant] | 7.64 | 3.39 | 6.76 | 6.48 | 3.28 | 35
28 | CUACUUCAAACAAUCCGUCUA [Fam1A.1 aminoacylation ribozyme variant] | 0.596 | 0.801 | 0.651 | 0.611 | 0.88 | 1.07
29 | AUUAACCUAGGUCCUCGGGUG [Fam2.2 aminoacylation ribozyme variant] | 3.09 | 2.58 | 4.72 | 4.07 | 2.81 | 18
30 | CCACACUUGAAGCAACCGGUC [Fam1B.1 aminoacylation ribozyme variant] | 0.938 | 0.886 | 0.699 | 0.694 | 1.04 | 0.953
31 | AAGUUUGCUACUUGUCGCAAG [Fam3.1 aminoacylation ribozyme variant] | 1.21 | 1.05 | 1.06 | 0.928 | 1.12 | 1.01
32 | AUUGACCCAGGUCAUCGGGUG [Fam2.2 aminoacylation ribozyme variant] | 5.64 | 3.6 | 6.54 | 4.74 | 3.31 | 34.9
33 | AUUACCCUGGUCAUCGAGUAA [Fam2.1 aminoacylation ribozyme variant] | 25.3 | 8.7 | 26.7 | 28.9 | 10.1 | 118
34 | AAGGUUGCUAGUAGUCGCAAG [Fam3.1 aminoacylation ribozyme variant] | 1.3 | 1.18 | 0.971 | 1.3 | 1.07 | 1.77
35 | CUACUCCAAACACUCGGUCUG [Fam1A.1 aminoacylation ribozyme variant] | 1.52 | 1.12 | 1.03 | 0.93 | 0.962 | 1.15
36 | AAGUUUGAUAAUAGUCGGAAG [Fam3.1 aminoacylation ribozyme variant] | 0.436 | 0.514 | 0.536 | 0.556 | 0.572 | 0.778
37 | CAACACUUCAACCAAUCGGUC [Fam1B.1 aminoacylation ribozyme variant] | 28.2 | 1.28 | 2.04 | 1.58 | 1.36 | 45.6
38 | AUUACCCUGGUCAUCAAGUUA [Fam2.1 aminoacylation ribozyme variant] | 0.328 | 0.676 | 0.646 | 0.684 | 0.681 | 0.737
39 | AUUCACCUAGGACUUCGGGUG [Fam2.2 aminoacylation ribozyme variant] | 3.48 | 2.5 | 3.6 | 2.75 | 2.43 | 19.1
40 | CUACUUCGAACAAACGGUCUG [Fam1A.1 aminoacylation ribozyme variant] | 0.619 | 0.709 | 0.535 | 0.664 | 0.805 | 0.51
41 | CUACUUCAAACAAUCGGUCGA [Fam1A.1 aminoacylation ribozyme variant] | 6.82 | 0.884 | 0.992 | 0.807 | 0.974 | 14.9
42 | CUACUUCAAACUAUCGGUUUG [Fam1A.1 aminoacylation ribozyme variant] | 0.697 | 0.944 | 0.829 | 0.748 | 0.961 | 0.88
43 | CCAGACUCCAAGCAAUCGGUC [Fam1B.1 aminoacylation ribozyme variant] | 1.48 | 1.22 | 1.23 | 1.17 | 1.23 | 2.16
44 | ACACACUUCAAGCAAGCGGUC [Fam1B.1 aminoacylation ribozyme variant] | 1.74 | 1.6 | 1.52 | 1.33 | 1.73 | 2.18
45 | CCACACUUUAAGAAAUCGGUC [Fam1B.1 aminoacylation ribozyme variant] | 0.727 | 0.841 | 0.782 | 0.607 | 0.663 | 0.835
46 | CCGCUCUUCAAGCAAUCGGUC [Fam1B.1 aminoacylation ribozyme variant] | 26.3 | 1.42 | 1.92 | 1.6 | 1.76 | 35.5
47 | CUACUUCAUACAAUCGGUCAG [Fam1A.1 aminoacylation ribozyme variant] | 0.721 | 0.738 | 0.662 | 0.644 | 0.699 | 0.985
48 | AUUACCCUGGUCAUAGAGAGA [Fam2.1 aminoacylation ribozyme variant] | 0.77 | 0.947 | 0.798 | 0.983 | 0.717 | 0.605
49 | AAGUUUGCUAAUAAUGGCAAG [Fam3.1 aminoacylation ribozyme variant] | 0.585 | 0.644 | 0.479 | 0.599 | 0.727 | 0.786
50 | CCACACUUCAGACAAUCGGUC [Fam1B.1 aminoacylation ribozyme variant] | 1.29 | 1.17 | 1.53 | 0.902 | 1.26 | 1.33
51 | AUUACCAUGGUCAGCGAGUGA [Fam2.1 aminoacylation ribozyme variant] | 6.31 | 3.11 | 6.19 | 5.49 | 3.19 | 30.7
